From patent US20210147812A1, “Method of Preparing Cancer Spheroid and Method of Selecting Colorectal Cancer Patient” (Kyo Diagnostics K.K., priority 2017, published 2021)

Test system: CRC-TIC spheroid lines that carried wild-type RAS/RAF genes (HC6T, HC9T, HC11T, HC21T)
Assay: Stimulation of spheroid growth with EGF and/or bFGF, luminescence-based growth monitoring (GEI)
Assay type: cell-based, human
Settings: HC11T
Method: Luminescence was determined daily or 3 days later. The cell growth rate for each well was estimated as the proportion of photon counts to those on day 1. Four or six replicates (with similar statistical power) were analyzed for each data point in all experiments except for the chemical compound screening assays.
To investigate whether EGF and bFGF helped spheroid proliferation in the cancer medium as described above, we cultured with EGF and/or bFGF four slow-growing CRC-TIC spheroid lines that carried wild-type RAS/RAF genes (HC6T, HC9T, HC11T, HC21T). Because EGF/bFGF facilitated the growths of these spheroid lines substantially (FIG. 3A), we then quantified their effects by the luminescence-based growth monitoring. To calibrate the effects, we introduced the growth effect index (GEI) defined as the relative growth rate of a treated group to that of its solvent-only control in each paired assay. […] The extents of growth promotion by EGF and bFGF were different depending on the spheroid line. […] In another spheroid line (HC21T), the effects were similar between the two growth factors (FIG. 3B).

B1: EGF: epidermal growth factor, recombinant human protein (protein, UniProt P01133 23-1207, looked up)
Pro-epidermal growth factor: PQHWSCPEGTLAGNGNSTCVGPAPFLIFSHGNSIFRIDTEGTNYEQLVVDAGVSVIMDFHYNEKRIYWVDLERQLLQRVFLNGSRQERVCNIEKNVSGMAINWINEEVIWSNQQEGIITVTDMKGNNSHILLSALKYPANVAVDPVERFIFWSSEVAGSLYRADLDGVGVKALLETSEKITAVSLDVLDKRLFWIQYNREGSNSLICSCDYDGGSVHISKHPTQHNLFAMSLFGDRIFYSTWKMKTIWIANKHTGKDMVRINLHSSFVPLGELKVVHPLAQPKAEDDTWEPEQKLCKLRKGNCSSTVCGQDLQSHLCMCAEGYALSRDRKYCEDVNECAFWNHGCTLGCKNTPGSYYCTCPVGFVLLPDGKRCHQLVSCPRNVSECSHDCVLTSEGPLCFCPEGSVLERDGKTCSGCSSPDNGGCSQLCVPLSPVSWECDCFPGYDLQLDEKSCAASGPQPFLLFANSQDIRHMHFDGTDYGTLLSQQMGMVYALDHDPVENKIYFAHTALKWIERANMDGSQRERLIEEGVDVPEGLAVDWIGRRFYWTDRGKSLIGRSDLNGKRSKIITKENISQPRGIAVHPMAKRLFWTDTGINPRIESSSLQGLGRLVIASSDLIWPSGITIDFLTDKLYWCDAKQSVIEMANLDGSKRRRLTQNDVGHPFAVAVFEDYVWFSDWAMPSVMRVNKRTGKDRVRLQGSMLKPSSLVVVHPLAKPGADPCLYQNGGCEHICKKRLGTAWCSCREGFMKASDGKTCLALDGHQLLAGGEVDLKNQVTPLDILSKTRVSEDNITESQHMLVAEIMVSDQDDCAPVGCSMYARCISEGEDATCQCLKGFAGDGKLCSDIDECEMGVPVCPPASSKCINTEGGYVCRCSEGYQGDGIHCLDIDECQLGEHSCGENASCTNTEGGYTCMCAGRLSEPGLICPDSTPPPHLREDDHHYSVRNSDSECPLSHDGYCLHDGVCMYIEALDKYACNCVVGYIGERCQYRDLKWWELRHAGHGQQQKVIVVAVCVVVLVMLLLLSLWGAHYYRTQKLLSKNPKNPYEESSRDVRSRRPADTEDGMSSCPQPWFVVIKEHQDLKNGGQPVAGEDGQAADGSMQPTSWRQEPQLCGMGTEQGCWIPVSSDKGSCPQVMERSFHMPSYGTQTLEGGVEKPHSLLSANPLWQQRALDPPHQMELTQ
modifications: Pro-epidermal growth factor
notes: epidermal growth factor, recombinant human protein
Question: How did the “extent of growth promotion, bFGF versus EGF” value turn out when B1 was run?
Answer: vice versa
